Target: T1, full-length CDC34 with C191S/C223S substitutions (human, UniProt P49427 1-236, C191S | C223S)
T1 sequence: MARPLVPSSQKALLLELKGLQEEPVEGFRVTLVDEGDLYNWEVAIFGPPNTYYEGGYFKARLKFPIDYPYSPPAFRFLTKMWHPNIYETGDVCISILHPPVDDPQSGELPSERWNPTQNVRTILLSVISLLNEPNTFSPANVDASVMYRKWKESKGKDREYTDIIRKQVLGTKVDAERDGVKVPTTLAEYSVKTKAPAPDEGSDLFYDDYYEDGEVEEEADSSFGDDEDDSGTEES
Assay: NMR titration

B1: sRbx1^12–108 (solubilized human Rbx1/ROC1 residues 12–108 with W27S, V30S, L32Q, W33S) (domain or fragment)
chain: not shown
- Kd: > 1000 µM

From PMC3366790 (The Journal of Biological Chemistry, 2012)
